Earlier results on one substance are cited in US11590205B2, “Methods for producing stable therapeutic glucagon formulations in aprotic polar solvents” (Xeris Pharmaceuticals, Inc., priority 2015, dated 2023).

The conditions of this series: aqueous.

For glucagon, the “solubility at neutral pH” value is “essentially insoluble”.
